# Measured values reported in article PMC8257674, “Structural basis of inhibition of a transporter from Staphylococcus aureus, NorC, through a single-domain camelid antibody” (Communications Biology, 2021).
# T1: NorC WT (Staphylococcus aureus subsp. aureus COL …)
# T1 construct: also called NorC wild-type; source: E. coli C41(DE3), extracted from membranes in DDM, purified (Ni-NTA, SEC in DM)
# T1 chain: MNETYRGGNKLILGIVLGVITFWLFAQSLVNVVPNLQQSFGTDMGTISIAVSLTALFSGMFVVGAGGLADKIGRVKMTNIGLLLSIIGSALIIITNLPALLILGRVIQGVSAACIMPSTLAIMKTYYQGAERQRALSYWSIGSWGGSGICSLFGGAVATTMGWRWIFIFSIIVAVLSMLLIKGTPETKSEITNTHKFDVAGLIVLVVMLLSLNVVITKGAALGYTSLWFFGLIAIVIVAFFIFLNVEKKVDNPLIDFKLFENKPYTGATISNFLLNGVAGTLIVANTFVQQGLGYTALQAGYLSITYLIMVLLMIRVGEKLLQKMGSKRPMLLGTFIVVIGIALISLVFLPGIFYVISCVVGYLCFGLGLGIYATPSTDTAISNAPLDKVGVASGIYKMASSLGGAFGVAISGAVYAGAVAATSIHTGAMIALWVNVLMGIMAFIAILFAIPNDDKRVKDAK
# T2: NorC WT (wild-type) (Staphylococcus aureus subsp. aureus COL …)
# T2 chain: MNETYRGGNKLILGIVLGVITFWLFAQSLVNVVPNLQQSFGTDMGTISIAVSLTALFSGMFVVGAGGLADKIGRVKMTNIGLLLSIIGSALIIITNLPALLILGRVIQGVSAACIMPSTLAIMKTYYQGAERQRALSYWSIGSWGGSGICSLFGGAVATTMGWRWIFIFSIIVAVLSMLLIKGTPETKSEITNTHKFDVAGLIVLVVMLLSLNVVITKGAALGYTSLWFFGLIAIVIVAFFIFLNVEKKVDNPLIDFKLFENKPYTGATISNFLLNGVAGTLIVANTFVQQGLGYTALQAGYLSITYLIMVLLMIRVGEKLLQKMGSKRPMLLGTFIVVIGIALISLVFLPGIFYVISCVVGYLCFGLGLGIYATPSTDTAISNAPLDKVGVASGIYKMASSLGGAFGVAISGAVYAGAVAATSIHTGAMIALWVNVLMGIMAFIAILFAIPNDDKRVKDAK
# T3: NorC WT (wild-type) (Staphylococcus aureus subsp. aureus COL …)
# T3 construct: not shown: His8, C-terminal, kept
# T3 chain: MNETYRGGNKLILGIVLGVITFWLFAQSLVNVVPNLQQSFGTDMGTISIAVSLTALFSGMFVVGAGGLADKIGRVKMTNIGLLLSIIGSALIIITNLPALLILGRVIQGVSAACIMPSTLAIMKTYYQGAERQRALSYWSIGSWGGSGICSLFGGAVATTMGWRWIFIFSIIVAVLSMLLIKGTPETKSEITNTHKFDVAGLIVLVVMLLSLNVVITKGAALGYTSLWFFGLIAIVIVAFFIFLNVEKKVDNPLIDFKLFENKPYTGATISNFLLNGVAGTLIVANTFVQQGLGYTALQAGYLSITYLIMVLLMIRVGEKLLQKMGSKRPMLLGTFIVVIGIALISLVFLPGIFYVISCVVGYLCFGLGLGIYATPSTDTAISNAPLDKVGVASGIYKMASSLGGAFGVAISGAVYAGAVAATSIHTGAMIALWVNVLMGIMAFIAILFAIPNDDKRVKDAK
# Experiments:
# Conditions in all cases: both partners purified
# NorC WT [1] = molecular target: T1, NorC WT; test: ITC; ICab (200 uM, syringe) titrated into NorC WT (20 uM, cell); 25 °C; 20 mM HEPES pH 7.0, 200 mM NaCl, 4 mM n-decyl-beta-D-maltopyranoside; one set of sites model
# NorC WT [2] = molecular target: T1, NorC WT; test: ITC; ICab (200 uM, syringe) titrated into NorC WT (20 uM, cell) with 1 mM TPP in both cell and syringe; 25 °C; 20 mM HEPES pH 7.0, 200 mM NaCl, 4 mM n-decyl-beta-D-maltopyranoside; 16 injections of 2.5 ul; one set of sites model
# NorC WT (wild-type) [3] = molecular target: T2, NorC WT (wild-type); test: ITC; ICab (200 uM) in the syringe titrated into NorC WT (20 uM) in the cell; 25 °C; 20 mM HEPES pH 7.0, 200 mM NaCl, 4 mM n-decyl-beta-D-maltopyranoside; one set of sites model
# NorC WT (wild-type) [4] = molecular target: T2, NorC WT (wild-type); test: ITC; ICab (200 uM) in the syringe titrated into NorC WT (20 uM) in the cell, with 1 mM TPP in both cell and syringe; 25 °C; 20 mM HEPES pH 7.0, 200 mM NaCl, 4 mM n-decyl-beta-D-maltopyranoside; 16 injections of 2.5 ul; one set of sites model
# NorC WT (wild-type) [5] = molecular target: T3, NorC WT (wild-type); test: ITC; as without TPP+, but in the presence of 1 mM TPP+; 16 injections of 2.5 ul; 25 °C; 20 mM HEPES pH 7.0, 200 mM NaCl, 4 mM DM
# NorC WT (wild-type) [6] = molecular target: T3, NorC WT (wild-type); test: MST; 10 nM transporter labelled with red Tris-NTA dye, ICab titrated from 5 uM in twofold dilutions; Monolith NT.115 premium-coated capillaries; single-site binding model
binder,measurement,setting,value
single-domain Indian camelid antibody (ICab) (VHH) VHH: QVQLEESGGGSVQAGGSLRLSCAASGYMYSTYSTYCMGWFRQAPGKEREGVAFIKRGDHSTYYTDSVKGRFTISQDSAKNTVSLQMNNLKPEDTAIYYCAADFAHSFLLSVHSGAGQYSYWGQGTQVTVSS,Kd,NorC WT [1],46.6 ± 8.9 nM
same,stoichiometry N,NorC WT [1],1.04 ± 0.005
same,stoichiometry N,NorC WT [2],1.14 ± 0.012
"single-domain Indian camelid antibody (ICab) (VHH, also called single-domain camelid antibody) VHH: QVQLEESGGGSVQAGGSLRLSCAASGYMYSTYSTYCMGWFRQAPGKEREGVAFIKRGDHSTYYTDSVKGRFTISQDSAKNTVSLQMNNLKPEDTAIYYCAADFAHSFLLSVHSGAGQYSYWGQGTQVTVSS",Kd,NorC WT (wild-type) [3],46.6 nM
same,stoichiometry N,NorC WT (wild-type) [3],1.04
same,stoichiometry N,NorC WT (wild-type) [4],1.14
"Zn2+-bound single-domain Indian camelid antibody (ICab) (VHH, also called single-domain camelid antibody; vhh) VHH: QVQLEESGGGSVQAGGSLRLSCAASGYMYSTYSTYCMGWFRQAPGKEREGVAFIKRGDHSTYYTDSVKGRFTISQDSAKNTVSLQMNNLKPEDTAIYYCAADFAHSFLLSVHSGAGQYSYWGQGTQVTVSS",Kd,NorC WT (wild-type) [5],35.6 ± 16 nM
same,Kd,NorC WT (wild-type) [6],37.5 ± 16 nM
